Data on two substances can be found in PMC3882142.

The target of this assay is bacteriophage P22 coat protein (CP), assembled as the P22 VLP capsid (bacteriophage P22) (UniProt P26747). Description: SEC-MALS.
Sequence of UniProt P26747 (P26747 whole entry): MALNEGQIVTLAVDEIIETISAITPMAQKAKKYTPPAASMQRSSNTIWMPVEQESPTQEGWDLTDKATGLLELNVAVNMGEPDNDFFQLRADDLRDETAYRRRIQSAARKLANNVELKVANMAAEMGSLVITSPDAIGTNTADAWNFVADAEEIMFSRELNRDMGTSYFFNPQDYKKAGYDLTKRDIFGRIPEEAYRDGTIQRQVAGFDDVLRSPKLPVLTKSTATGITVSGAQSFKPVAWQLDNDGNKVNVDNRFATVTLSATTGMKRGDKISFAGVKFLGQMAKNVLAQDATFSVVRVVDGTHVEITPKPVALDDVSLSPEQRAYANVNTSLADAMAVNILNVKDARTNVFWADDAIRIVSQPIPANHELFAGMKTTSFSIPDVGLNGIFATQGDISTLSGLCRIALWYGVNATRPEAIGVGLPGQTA

The substance “GalA-SP fusion protein (alpha-galactosidase of Pyrococcus furiosus fused to the truncated scaffold protein of P22)” had a stoichiometry N (proteins per capsid) of 183.

“HA_(head)-SP fusion protein (hemagglutinin head of influenza fused to the truncated scaffold protein of P22)”: the stoichiometry N (proteins per capsid) came to 286.
